From patent US20240294635A1 (CHIA TAI TIANQING PHARMACEUTICAL GROUP, published 2024) come the findings set out here.

In test [1] the target is CD47 on HL60 cells (UniProt Q08722 19-323, limits assumed). Nature of the test: cell-based or functional assay.
The target in test [2] is T1, human CD47 protein, His Tag (ACRObiosystems, Cat. No. CD7-H5227) (human, UniProt Q08722 19-139).
T1 construct: bought reagent; also called CD47-His; hCD47-His Tag; not shown: His tag
Briefly: ELISA, plate coated with CD47-His. (In an ELISA, binding on a coated surface is turned into a signal by an enzyme label.)

In test [3] the target is T1, human CD47 protein, His Tag …. Briefly: Biacore SPR, 25 C, antibody captured on CM5 chip. On the technique in general: In SPR one partner is held on a chip, and binding of the other changes the refractive index at the surface.
Test [4] addresses T2, cynomolgus/rhesus macaque CD47 protein, His Tag (ACRObiosystems, Cat. No. CD7-C52H1) (cynomolgus monkey (cynomolgus/rhesus …, UniProt A0A2K5X523 19-141)).
T2 construct: bought reagent; also called Cynomolgus monkey CD47 protein
Briefly: Biacore SPR, 25 C, antibody captured on CM5 chip.

The target of test [5] is T3, CD47 on the red cell surface (Homo sapiens (Human), UniProt Q08722 19-323). Briefly: flow cytometry on fixed red cells, antibody 1 µg/mL. In general terms: A flow cytometer gives signals particle by particle.
Experimental: (§1) Anticoagulated blood was collected and well mixed with an equal amount of normal saline. The mixture was centrifuged at 2000 rpm/min for 5 min, and the supernatant was removed. […] In the first two washings, the mixture was centrifuged at 2000 rpm/min for 5 min, and in the last washing, the mixture was centrifuged at 2000 rpm/min for 10 min, and the supernatant was removed.
In test [6] the target is T3, CD47 on the red cell surface. Briefly: flow cytometry on fixed red cells, antibody 10 µg/mL.
Experimental: as §1
Test [7] deals with T4, human CD47 protein on CHO-K1-CD47 cells (human, UniProt Q08722 19-323).
T4 construct: whole, on cells; also called CHO-K1 cells expressing human CD47 protein
Briefly: cell binding, CHO-K1-CD47 cells, high content imaging.
Experimental: A cell binding assay of anti-CD47 antibodies (chimeric or humanized) was performed based on the binding to a CHO-K1 cell line stably expressing CD47. CHO-K1-CD47 cells (CHO-K1 cells expressing human CD47 protein) were added to each well of a 96-well plate (Eppendorf, Cat. No. C030730.119) at 1.2×10⁴ cells per well and incubated with anti-CD47 antibodies (20 μg/mL, 1:4 dilution in PBS) at room temperature for 1-2 h. […] The cells were incubated at room temperature for 30 min. The cells were washed three times with PBS buffer. A nuclear dye Hoechst (Sigma, Cat. No. B2261) was diluted with PBS buffer at a dilution ratio of 1:500 and then added to each well at 100 μL/well for staining for 10 min. The cells were washed 3 times with PBS and analyzed using a high content screening system (manufacturer: PerkinElmer; model: Operetta).

For test [8], the target named is T1, human CD47 protein, His Tag …. Nature of the test: ELISA, CD47-His coated, competition with Human-SIRPα-mFc.
Experimental: The plate was let stand at 2-8° C. overnight. The wells were aspirated to remove the coating buffer and blocked with 100 μL/well of a blocking solution (PBS with 1% (w/v) bovine serum albumin (BSA, Sigma, Cat. No. B2064-100G)) by incubation at 37° C. for 1 h. The 96-well plate was washed with a washing buffer (PBS with 0.01% (w/v) Tween 20 (Sigma, Cat. No. P9416-100ML)). […] After the 96-well plate was washed with PBS washing buffer, anti-CD47 chimeric antibodies or anti-CD47 humanized antibodies (see Table 8 for chimeric antibodies, and see Table 9 for humanized antibodies) were added. 4-fold dilution was performed with PBS buffer from a starting concentration of 20 μg/mL, with 8 gradients obtained. The plate was incubated at room temperature for 1.5 h. […] After the 96-well plate was washed with PBS buffer, 100 μL/well of a substrate solution TMB (TIANGEN, Cat. No. PA107-01) was added, and the plate was incubated at room temperature for color development for 10 min. 100 μL/well of 1 M H₂SO₄ was added to stop the reaction. Colorimetric signals were generated and read at 450 nm using a multifunctional microplate reader (manufacturer: PerkinElmer; model: EnVision). Data were analyzed using GraphPad Prism5, and EC₅₀ was calculated.

In general, EC50 refers to the concentration needed to bring the measured effect to its halfway point. As usually defined, the Kd is the equilibrium constant for the complex coming apart. For orientation: IC50 means the concentration needed to halve the response being measured.

T2 sequence (A0A2K5X523 entry or part of it limits assumed): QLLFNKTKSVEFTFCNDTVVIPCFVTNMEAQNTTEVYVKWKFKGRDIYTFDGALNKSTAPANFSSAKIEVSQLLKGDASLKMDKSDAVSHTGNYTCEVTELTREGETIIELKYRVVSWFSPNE

B1: hz14A9-2.3 (antibody, human IgG4 S228P, kappa, V domains shown)
VH: QVQLVQSGAEVKKPGASVKVSCKVSGFNIEDDYIEWVRQAPGQGLEWMGRIDPANDKTKYAQKFQGRVTMTGDTSTNTVYMELSSLRSEDTAVYYCARPGLRRYYSMDYWGQGTLVTVSS
VL: DIQMTQSPSSLSASVGDRVTITCKASENVVSYVSWYQQKPGKAPKLLIYGASNRYTGVPSRFIGSGSSTDFTLTISSLQPEDFATYYCGQSYSYPLTFGQGTKLEIKR
notes: humanized 14A9, full-length heavy and light chains
For B1, the “rate of phagocytosis, antibody 1 µg/mL” value in test [1] came out at 71.5%. Further, the “rate of phagocytosis, antibody 10 µg/mL” value in test [1] was determined as 74.9%. Moreover, the values for the concentration for a half-maximal effect (EC50) in test [2] and in test [7] were 0.157 µg/mL and 0.499 µg/mL, respectively. For the same molecule, the equilibrium dissociation constant (Kd) in test [3] is 0.204 nM; in test [4] it was 3.07 nM. Also, the MFI is 2510 MFI in test [5] and 11000 MFI in test [6]. Further, the IC50 in test [8] came out at 0.703 µg/mL.

B2: hz3F10-1.1 (antibody, human IgG4 S228P, kappa, V domains shown)
VH: QVQLVQSGAEVKKPGSSVKVSCKASGYTFSRYWIEWVRQAPGQGLEWMGEFIPGSDTTNYAQKFQGRVTITADISTSTAYMELSSLRSEDTAVYYCARGGLRRMDYWGQGTLVTVSS
VL: DIQMTQSPSSLSASVGDRVTITCRASSSVSSTYLHWYQQKPGKAPKLLIYTTSTLASGVPSRFSGSGSGTDFTLTISSLQPEDFATYYCQQFSDSTWTFGQGTKLEIKR
notes: humanized 3F10, full-length heavy and light chains
Consider B2, for which the “rate of phagocytosis, antibody 1 µg/mL” value in test [1] was found to be 41.2%. Besides, the “rate of phagocytosis, antibody 10 µg/mL” value in test [1] is 43.1%. Also, the EC50 in test [2] stood at 0.07 µg/mL; in test [7], 0.876 µg/mL. Also, the dissociation constant (Kd) in test [3] was 0.946 nM; in test [4], 1.31 nM. Also, the MFI in test [5] came to 4450 MFI; in test [6] it was 50500 MFI. This molecule also had an IC50 in test [8] of 1.53 µg/mL.

B3: hz3F10-2.2 (antibody, human IgG4 S228P, kappa, V domains shown)
VH: QVQLVQSGAEVKKPGSSVKVSCKASGYTFSRYWIEWVRQAPGQGLEWMGEFIPGSDTTNYAQKFQGRVTITAEISTNTAYMELSSLRSEDTAVYYCARGGLRRMDYWGQGTLVTVSS
VL: DIQMTQSPSSLSASVGDRVTITCRASSSVSSTYLHWYQQKPGKAPKLLIYTTSTLASGVPSRFSGSGSGTDFTLTISSLQPEDFATYYCQQFSESTWTFGQGTKLEIKR
notes: as for B2
In the case of B3, the “rate of phagocytosis, antibody 1 µg/mL” value in test [1] was found to be 44.2%. In addition, the “rate of phagocytosis, antibody 10 µg/mL” value in test [1] amounted to 34.7%. For the same molecule, the results for the half-maximal effective concentration (EC50) in test [2] and in test [7] were 0.106 µg/mL and 1.12 µg/mL, respectively. The Kd in test [3] came to 0.779 nM; in test [4] it was 1.14 nM. Further, the MFI is 5610 MFI in test [5] and 56100 MFI in test [6]. In test [8], this molecule registered an IC50 of 1.73 µg/mL.

B4: hz3F10-6.1 (antibody, human IgG4 S228P, kappa, V domains shown)
VH: QVQLVQSGAEVKKPGSSVKVSCKASGYTFSRYWIEWVRQAPGQGLEWMGEFIPGSDTTNYAQKFQGRVTITADISTSTAYMELSSLRSEDTAVYYCARGGLRRMDYWGQGTLVTVSS
VL: DIQMTQSPSSLSASVGDRVTITCRASSSVSSTYLHWYQQKPGKAPKLWIYTTSTLASGVPSRFSGSGSGTSYTLTISSLQPEDFATYYCQQFSESTWTFGQGTKLEIKR
notes: as for B2
As to B4, in test [1], the “rate of phagocytosis, antibody 1 µg/mL” value amounted to 47.6%. Besides, the “rate of phagocytosis, antibody 10 µg/mL” value in test [1] turned out to be 60.9%. The EC50 in test [2] came to 0.0563 µg/mL; in test [7] it was 1.18 µg/mL. For the same molecule, the results for the Kd in test [3] and in test [4] were 0.592 nM and 2.47 nM, respectively. Also, the MFI in test [5] was 7580 MFI; in test [6], 53000 MFI. Moreover, the IC50 in test [8] amounted to 1.77 µg/mL.

B5: hz3F10-1.2 (antibody, human IgG4 S228P, kappa, V domains shown)
VH: QVQLVQSGAEVKKPGSSVKVSCKASGYTFSRYWIEWVRQAPGQGLEWMGEFIPGSDTTNYAQKFQGRVTITAEISTNTAYMELSSLRSEDTAVYYCARGGLRRMDYWGQGTLVTVSS
VL: DIQMTQSPSSLSASVGDRVTITCRASSSVSSTYLHWYQQKPGKAPKLLIYTTSTLASGVPSRFSGSGSGTDFTLTISSLQPEDFATYYCQQFSDSTWTFGQGTKLEIKR
notes: as for B2
On to B5, for which, in test [1], the “rate of phagocytosis, antibody 1 µg/mL” value amounted to 55.5%. For the same molecule, the “rate of phagocytosis, antibody 10 µg/mL” value in test [1] turned out to be 38.9%. Moreover, the EC50 was 0.125 µg/mL in test [2] and 1.27 µg/mL in test [7]. Moreover, the figures for the Kd in test [3] and in test [4] were 0.904 nM and 1.33 nM, respectively. In addition, the MFI in test [5] came to 6250 MFI; in test [6], 56700 MFI. In test [8], the IC50 is 1.69 µg/mL.

B6: hz3F10-5.2 (antibody, human IgG4 S228P, kappa, V domains shown)
VH: QVQLVQSGAEVKKPGSSVKVSCKASGYTFSRYWIEWVRQAPGQGLEWMGEFIPGSDTTNYAQKFQGRVTITAEISTNTAYMELSSLRSEDTAVYYCARGGLRRMDYWGQGTLVTVSS
VL: DIQMTQSPSSLSASVGDRVTITCRASSSVSSTYLHWYQQKPGKAPKLWIYTTSTLASGVPSRFSGSGSGTSYTLTISSLQPEDFATYYCQQFSDSTWTFGQGTKLEIKR
notes: as for B2
B6: the “rate of phagocytosis, antibody 1 µg/mL” value in test [1] turned out to be 47.1%. Also, the “rate of phagocytosis, antibody 10 µg/mL” value in test [1] came to 29.6%. The concentration giving a half-maximal response (EC50) in test [2] is 0.106 µg/mL; in test [7], 1.26 µg/mL. For the same molecule, the Kd in test [3] was determined as 0.896 nM; in test [4] it was 1.4 nM. Besides, the MFI in test [5] turned out to be 5130 MFI; in test [6], 53300 MFI. Moreover, the IC50 in test [8] is 1.82 µg/mL.

B7: hz3F10-6.2 (antibody, human IgG4 S228P, kappa, V domains shown)
VH: QVQLVQSGAEVKKPGSSVKVSCKASGYTFSRYWIEWVRQAPGQGLEWMGEFIPGSDTTNYAQKFQGRVTITAEISTNTAYMELSSLRSEDTAVYYCARGGLRRMDYWGQGTLVTVSS
VL: DIQMTQSPSSLSASVGDRVTITCRASSSVSSTYLHWYQQKPGKAPKLWIYTTSTLASGVPSRFSGSGSGTSYTLTISSLQPEDFATYYCQQFSESTWTFGQGTKLEIKR
notes: as for B2
Regarding B7, the “rate of phagocytosis, antibody 1 µg/mL” value in test [1] amounted to 49.3%. In test [1], the “rate of phagocytosis, antibody 10 µg/mL” value amounted to 44.2%. The figures for the concentration for a half-maximal effect (EC50) in test [2] and in test [7] were 0.129 µg/mL and 1.49 µg/mL, respectively. The Kd in test [3] stood at 0.765 nM; in test [4], 1.15 nM. Also, the MFI is 3440 MFI in test [5] and 55900 MFI in test [6]. For the same molecule, the IC50 in test [8] was found to be 1.84 µg/mL.

B8: hz3F10-5.1 (antibody, human IgG4 S228P, kappa, V domains shown)
VH: QVQLVQSGAEVKKPGSSVKVSCKASGYTFSRYWIEWVRQAPGQGLEWMGEFIPGSDTTNYAQKFQGRVTITADISTSTAYMELSSLRSEDTAVYYCARGGLRRMDYWGQGTLVTVSS
VL: DIQMTQSPSSLSASVGDRVTITCRASSSVSSTYLHWYQQKPGKAPKLWIYTTSTLASGVPSRFSGSGSGTSYTLTISSLQPEDFATYYCQQFSDSTWTFGQGTKLEIKR
notes: as for B2
Regarding B8, the “rate of phagocytosis, antibody 1 µg/mL” value in test [1] was 50.5%. Further, the “rate of phagocytosis, antibody 10 µg/mL” value in test [1] turned out to be 58.5%. Also, the EC50 in test [2] came out at 0.0993 µg/mL; in test [7], 1.48 µg/mL. The Kd in test [3] was 0.96 nM; in test [4] it was 1.3 nM. In addition, the MFI in test [5] is 7400 MFI; in test [6], 50600 MFI. In test [8], this molecule yielded a half-maximal inhibitory concentration (IC50) of 1.7 µg/mL.

B9: hz3F10-2.1 (antibody, human IgG4 S228P, kappa, V domains shown)
VH: QVQLVQSGAEVKKPGSSVKVSCKASGYTFSRYWIEWVRQAPGQGLEWMGEFIPGSDTTNYAQKFQGRVTITADISTSTAYMELSSLRSEDTAVYYCARGGLRRMDYWGQGTLVTVSS
VL: DIQMTQSPSSLSASVGDRVTITCRASSSVSSTYLHWYQQKPGKAPKLLIYTTSTLASGVPSRFSGSGSGTDFTLTISSLQPEDFATYYCQQFSESTWTFGQGTKLEIKR
notes: as for B2
On to B9, for which, in test [1], the “rate of phagocytosis, antibody 1 µg/mL” value was 47.2%. Also, the “rate of phagocytosis, antibody 10 µg/mL” value in test [1] came out at 55.2%. Also, the EC50 stood at 0.0809 µg/mL in test [2] and 1.07 µg/mL in test [7]. Further, the values for the equilibrium dissociation constant (Kd) in test [3] and in test [4] were 0.836 nM and 1.17 nM, respectively. Further, the MFI turned out to be 8450 MFI in test [5] and 53200 MFI in test [6]. Moreover, in test [8], the IC50 stood at 1.61 µg/mL.
